The nanobody polyreactivity screen of Harvey et al. (2022)

Experiment: yeast display, Sf9 membrane polyspecificity reagent, FACS + sequencing; frameworks hold sequencing errors
In short: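 A synthetic nanobody library was expressed on Saccharomyces cerevisiae BJ5465 by galactose induction for 36–48 hours. The library was stained for 1 hour at 4 °C with 10% biotinylated, detergent-solubilized Sf9 membrane reagent and enriched with streptavidin microbeads before FACS. Low and high (top ~1%) gates were set on anti-HA fluorescence for expression and streptavidin fluorescence for reagent binding, and each polyreactivity label reflects the gate of origin.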

Sequence	polyreactivity (PSR sort gate)
QVQLVESGGGLVQAGGSLRLSCAASGRTFPYNAMGWYIQAPGKERELVAAISSGGSTNYADSVKGRFTISRDNAKNTVYLQMNSLKPEDTAVYYCAVTGWPRYTWYSYGYWGQGTQVTVSS	low polyreactivity
QVQLVESGGGLVQAGGSLRLSCAASGRTFPYNAMGWYRPAPGKERELVAAISGRGGSTYYADYVKGRFTISRDNAKNTVYLQMNSLKPEDTAVYYCAARLPWSYYRTQGYNYWGQGTQVTVSS	high polyreactivity
QVQLVESGGGLVQAGGSLRLSCAASGRTFPYNAMGWYRQAPGKERELVAAISYSGGRTYYADSVKGRFTISRDNAKNTFYLQMNSLKPEDTAVYYCNALGSGREDDYWGQGTQVTVSS	high polyreactivity
QVQLVESGGGLVQAGGSLRLSCAASGRTFPYNAMGWYRQAPGKERELVAAISYSGGRTYYADSVKGRFTISRDNAKNTVYLQMNSLKPEDTAVYYCNALGSGREDDYWGQGTQVTVSS	high polyreactivity
QVQLVESGGGLVQAGGSLRLSCAASGRTFPYNAMVWYRQAPGKERELVARITSGVRTYYADSVKGRFTISRDNAKNTVYLQMNSLKPEDTAVYYCAATTYNRFYRAPTSKYDYWGQGTQVTVSS	high polyreactivity
QVQLVESGGGLVQAGGSLRLSCAASGRTFPYNARGWYRQAPGKERELVAAISSRGGSTYYADSVKGRFTISRDNAKNTVYLQMNSLKPEDTAVYYCAAQFRFSGMGYWGQGTQVTVSS	high polyreactivity
QVQLVESGGGLVQAGGSLRLSCAASGRTFPYYAMGGYRKAPGKERELLASISRGGNTNYADSVKGRFTISRDNAKNTVYLQMNSLKPEATAVYYCAADYYLAYGSRRGGYWGQGTQVTVSS	high polyreactivity
QVQLVESGGGLVQAGGSLRLSCAASGRTFPYYAMGWYRQAPGKERELVAAISSSGGRTYYADSVKGRFTISRDNAKNTVYLQMNSLKREDTAVYYCNVDAWYPYQGFLVGYYYWGQGTQVTVSS	low polyreactivity
QVQLVESGGGLVQAGGSLRLSCAASGRTFPYYAMGWYRQAPGKERELVAAISSSGGRTYYADSVKGRFTISRDNAKNTVYLQMNSQKPEDTAVYYCAAQTPGVYLRQIGGYYYWGQGTQVTVSS	low polyreactivity
QVQLVESGGGLVQAGGSLRLSCAASGRTFPYYAMGWYRQAPGKERELVAAITWSGGTTYYADSVKGRFTISRDNAKNTVYLQMNSLKPEDTAVYYCAADFYGPDGYDYWGQGTQVTVSS	low polyreactivity
QVQLVESGGGLVQAGGSLRLSCAASGRTFPYYTMGWYIQAPGKERELVAAIDGSGDNTYYADSVKGRFTISRDYAKNTVYLQLNSLKPEDNAVYYCTAEQWWSLDYWGQGTQVTVSS	low polyreactivity
QVQLVESGGGLVQAGGSLRLSCAASGRTFPYYTMGWYRQAPGKERELVAAISRSGGSTYYADSVKGRFTISRDNAKNTVYLQMNSLKPEDTAVYYCAAGIYRYNRYWGYNYWGQGTQVTVSS	high polyreactivity
QVQLVESGGGLVQAGGSLRLSCAASGRTFQFYAMGWYRQAPGKEREWVAAISRSSGSTTYADSVKGRFTISRDNAKNTVYLQMNSLKPEDTAVFYCDADARYRSYSLLVRPARYYYWGQGTQVTVAS	high polyreactivity
QVQLVESGGGLVQAGGSLRLSCAASGRTFQGYAMGWYRQAPGKERELVAAISRSGGRTYYADSVKGRFTISRDNAKNTVYLQMNSLKPEDTAVYYCAARRRWSQTPFDYWGQGTQVTVSS	high polyreactivity
QVQLVESGGGLVQAGGSLRLSCAASGRTFQKNTMGWYRQAPGKERELVAAIDYSATTTYYADSVKGRFTISRDNAKNTVYLQMNSLKTEDTAVYYCAARWSYPRWEFDYWGQGTQVTVSS	high polyreactivity
QVQLVESGGGLVQAGGSLRLSCAASGRTFQLYAMGWYRQAPGKQRELVAAIRTGGSTNYADSVKGRFTISRDNAKNTVYLQMNSLKPEDTAVYYCAAVQRTDRSAHYSWGQGTQVTVSS	low polyreactivity
QVQLVESGGGLVQAGGSLRLSCAASGRTFQPYAMGWYRQAPGKERELVAAITSIGGSTFYADSVKGRFTISRDNAKNTVYLQMNSLKPEDTAVYYCNARRYWLRYDYWGQGTQVTVSS	low polyreactivity
QVQLVESGGGLVQAGGSLRLSCAASGRTFQPYAMGWYRQAPRKERELVASISRSGGRTYYADSVKGRFTISRDNAKNTVYLQMNSLKPEDTAVYYCADDIPYTRSIKYYYWGQGTQVTVSS	high polyreactivity
QVQLVESGGGLVQAGGSLRLSCAASGRTFQRNAMGWYIQAPGKERELVATITTNGGSTYYADSVKGRFTISRDNAKNTVYLQMNSLKPEDTAVYYCAAPFNPRVRTLRSVRMDYWGQGTQVTVSS	low polyreactivity
QVQLVESGGGLVQAGGSLRLSCAASGRTFQRYAMGWYRQAPGKERELVAAITSSGGTTYYADSVKGRFTISRDNAKNTVYLQMYSMKPEDTAVYYCAARRITSRYDYWGQGTQVTVSS	high polyreactivity
QVQLVESGGGLVQAGGSLRLSCAASGRTFQSNGMGWYRQAPGKERELVAAITWSSGTTYYADSVKGRFTISRDNAKNTVYLQMNSLKPEDTAVYYCAADWGHWNSLYYSGFGYWGQGTQVTVSS	low polyreactivity
QVQLVESGGGLVQAGGSLRLSCAASGRTFQSYAMGRYRQGPGKEREFVAVISRSGGDTYYADSVKGRFTISRDNAKNTVYLLMNSLKPEDTAVYYCARGYTWFYADCPEYDYWGQGTQVTVSS	high polyreactivity

Sequence	polyreactivity (PSR sort gate)
QVQLVESGGGLVQAGGSLRLSCAASGRTFQSYAMGWYRQAPGKERELVAAITITGGRTYYADSVKGRFTISRDNAKNTVYLQMNSLKPEDTAVYYCADYDYWGQGTQVTVSS	low polyreactivity
QVQLVESGGGLVQAGGSLRLSCAASGRTFQTNAMGWYRQAPGKVRELVAAISSTGGSTYYADSVKGRFTISRDNAKYTVYLQMNSLKPEDTAVYYCNAGRTYRYDYWGQGTQVTVSS	high polyreactivity
QVQLVESGGGLVQAGGSLRLSCAASGRTFQTYAMGWYRQAPGKERELVASINWSDGSTYYADSVKGRFTISRDNAKNTVYLQMNSLKPEDTAVYYCAADSSAWLYDYWGQGTQVTVSS	low polyreactivity
QVQLVESGGGLVQAGGSLRLSCAASGRTFQTYARGWYRQAPGKERELVAAISKSGGGTYYADSVKGRFTISRDNAKNTVYLQMNSLKPEDTAVYYCATAGYHYRAWGGRYDYWGQGTQVTVSS	high polyreactivity
QVQLVESGGGLVQAGGSLRLSCAASGRTFQVYAMGWYTQAPGKERELVADITGRGGITYYADSVKGRFTISRDNAKNTVYLQMNSLKPEDTAVYYCAAERYNYKTIYRYDYWGQGTQVTVSS	high polyreactivity
QVQLVESGGGLVQAGGSLRLSCAASGRTFQYNAMGWYRQAPGKERELVAAISSSGGSTYYADSVKGRFTISRDNAKNTVYLQMNSLKPEDTAVYYCNAYSQSWNFYGDGDYWGQGSQVTVSS	low polyreactivity
QVQLVESGGGLVQAGGSLRLSCAASGRTFQYYAMGWYIQGPGKERELVAAISWSGGSTYYADSVKGRFTISRDNAKNTVYLQMNSLKPEDTAVYFCAAVVGRNRTRSYGYWGQGTQVTVSS	high polyreactivity
QVQLVESGGGLVQAGGSLRLSCAASGRTFQYYAMGWYRQAPGKERELVAAINQGGGRTYYADSVKGRFTISRDTAKNTVYLQMNSLKPEDTAVYYCAADGLSKFDYWGQGTQVTVSS	low polyreactivity
QVQLVESGGGLVQAGGSLRLSCAASGRTFQYYAMGWYRQAPGKERELVAAITSGGSTYYADSVTGRFTISRDNAKYTVYLQLNSLKPEDTAVYYCDATFYYSGHDDYWGQGTLVTVSS	low polyreactivity
QVQLVESGGGLVQAGGSLRLSCAASGRTFQYYAMGWYRQAPGQERELVAAITSGGSTYYADSVKGRFTISRDNAKNTVYLQMNSLKPEDTAVYYCAATFYYSGHYDYWGQGTQVTVSS	low polyreactivity
QVQLVESGGGLVQAGGSLRLSCAASGRTFRANAMEWYRQAPGKEREFVAVISLSGGGTYADSVKGRFTISRDNAKNTVYLQMNSLKPEDTAVYYCNRVPRRREYFHSNYLALFDYWGQGTQVTVSW	low polyreactivity
QVQLVESGGGLVQAGGSLRLSCAASGRTFRANAMGWYRQAPGKERELVAAITSTGDRTYYADSVKGRFTISRDNAKNTVYLQMNSLKPEDTAVYYCAAENNRYGGYRKYDYWGQGTQVTVSS	low polyreactivity
QVQLVESGGGLVQAGGSLRLSCAASGRTFRAYAMGWYRQAPGKERELVAAISYDGTRTYYADSVKGRFTISRDNAKNTVYLQMNSLKPEDTAVYYCNAVWVRGFYRVYDYWGQGTQVTVSS	high polyreactivity
QVQLVESGGGLVQAGGSLRLSCAASGRTFRCYAMGWDRQAPGKERELVAAITYSVGSTYYADSVKGRLTISRDTAKNTVYLQMNSLKPEDTAVYYCAADSYPYRYRGKYSRLDYCGQGTQVTVSS	low polyreactivity
QVQLVESGGGLVQAGGSLRLSCAASGRTFRFNAMGWYRQAPGKEREFVAAITSGGGTYYADSVKGRFTISRDNGKNTVYLQMNSLKPEDTAVYYCATVGKVHHRLVAMDYWGQGTQVTVSS	low polyreactivity
QVQLVESGGGLVQAGGSLRLSCAASGRTFRFNAMGWYRQAPGKERELVAAISSRGGNTYYADSVKGRFTISRDNAKNTVYLQMNSLKPVDTSVYYCNKDLNYWGYAKYYGYYYWGQGTQVTVSS	high polyreactivity
QVQLVESGGGLVQAGGSLRLSCAASGRTFRFYAMGWYRQAPGKERELVAAIRWSGGSTYYADSVKGRFTISRDNAKNTVYLQMNSLKPEDTAVYYCNADNRWPFGGWYGLDYWGQGTQVTVSS	high polyreactivity
QVQLVESGGGLVQAGGSLRLSCAASGRTFRGNAMGWYRQAPGKERELVAAIRYRGGSTYYADSVKGRFTISRDNAKNTVYLQMNSLKPEDTAVYYCARRYTVHTQHYDYWGQGTQVTVSS	high polyreactivity
QVQLVESGGGLVQAGGSLRLSCAASGRTFRGNAMGWYRQAPGKERELVAAISRSGGRTYYADSVKGRFTISRDNAKNTVYLQMNSLKPEDTAVYYCNARSYRRWGYYKQAPNGDYWGQGTQVTVSS	high polyreactivity
QVQLVESGGGLVQAGGSLRLSCAASGRTFRGNAMGWYRQAPGKERELVATINSGASTNYADSVKGRFTISRDNAKNPVYLQMNSLNPEDTAVYYCAAVKYFRWKYNYWGQGTQVTVSS	high polyreactivity
QVQLVESGGGLVQAGGSLRLSCAASGRTFRGNDMGWYRQAPGKEWELVATITRNGGSTRYADSVKGRFTISRDNAKNTVYLQMNSLKPEDTAVYYCNARSRYFGYDYWGQGTQVTVSS	high polyreactivity
